Legend:
[1] = molecular target: flag-tagged KV7.2 channel subunit (UniProt O43526)
[2] = molecular target: flag-tagged KV7.2 channel subunit (UniProt O43526); remark: listed apart in the source

UniProt O43526, sequence (O43526 whole entry): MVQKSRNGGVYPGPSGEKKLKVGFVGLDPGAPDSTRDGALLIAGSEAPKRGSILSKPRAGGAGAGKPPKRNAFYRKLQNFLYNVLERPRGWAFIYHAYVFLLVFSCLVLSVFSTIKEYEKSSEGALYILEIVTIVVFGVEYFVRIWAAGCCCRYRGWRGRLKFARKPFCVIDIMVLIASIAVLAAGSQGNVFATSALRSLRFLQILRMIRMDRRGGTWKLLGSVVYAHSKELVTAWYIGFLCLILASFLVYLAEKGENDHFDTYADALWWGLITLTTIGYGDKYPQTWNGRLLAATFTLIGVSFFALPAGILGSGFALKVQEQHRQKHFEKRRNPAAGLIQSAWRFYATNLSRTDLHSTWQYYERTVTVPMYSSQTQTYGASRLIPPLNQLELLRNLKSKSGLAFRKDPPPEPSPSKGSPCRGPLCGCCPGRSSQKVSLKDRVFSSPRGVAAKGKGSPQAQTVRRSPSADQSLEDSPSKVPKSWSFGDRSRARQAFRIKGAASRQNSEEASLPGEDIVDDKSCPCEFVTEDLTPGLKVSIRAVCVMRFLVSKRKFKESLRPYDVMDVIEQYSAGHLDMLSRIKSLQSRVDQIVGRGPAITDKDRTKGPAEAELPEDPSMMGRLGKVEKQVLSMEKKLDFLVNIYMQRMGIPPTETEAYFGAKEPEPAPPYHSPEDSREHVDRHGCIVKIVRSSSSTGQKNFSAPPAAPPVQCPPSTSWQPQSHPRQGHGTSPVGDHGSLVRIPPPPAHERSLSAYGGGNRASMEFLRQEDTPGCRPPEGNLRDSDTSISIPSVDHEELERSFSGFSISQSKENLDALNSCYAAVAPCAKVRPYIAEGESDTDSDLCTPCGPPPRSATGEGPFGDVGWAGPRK

Q: “pore-mutated KV8.1(AAA) (from UniProt Q6PIU1 1-500) (natural protein)” was tested. Which steady-state current density at +20 mV (patch clamp) in CHO cells co-transfected with KV8.1(AAA) and wild-type KV7.2 (4:1), relative to both wild-type constructs [1] did it give?
A: 50%

Q: And the current amplitude (patch clamp) in CHO cells co-transfected with KV8.1(AAA) and wild-type KV7.2 at a 1:1 ratio, relative to co-transfection of wild-type channels [2]?
A: 49.4%

B1: KV8.1 G399R (natural protein)
chain: MPSSGRALLDSPLDSGSLTSLDSSVFCSEGEGEPLALGDCFTVNVGGSRFVLSQQALSCFPHTRLGKLAVVVASYRRPGALAAVPSPLELCDDANPVDNEYFFDRSSQAFRYVLHYYRTGRLHVMEQLCALSFLQEIQYWGIDELSIDSCCRDRYFRRKELSETLDFKKDTEDQESQHESEQDFSQGPCPTVRQKLWNILEKPGSSTAARIFGVISIIFVVVSIINMALMSAELSWLDLQLLEILEYVCISWFTGEFVLRFLCVRDRCRFLRKVPNIIDLLAILPFYITLLVESLSGSQTTQELENVGRIVQVLRLLRALRMLKLGRHSTGLRSLGMTITQCYEEVGLLLLFLSVGISIFSTVEYFAEQSIPDTTFTSVPCAWWWATTSMTTVGYRDIRPDTTTGKIVAFMCILSGILVLALPIAIINDRFSACYFTLKLKEAAVRQREALKKLTKNIATDSYISVNLRDVYARSIMEMLRLKGRERASTRSSGGDDFWF
Q: Which current amplitude (patch clamp) in CHO cells co-transfected with KV8.1 G399R and wild-type KV7.2 (4:1), relative to both wild-type constructs [2] does the source give for B1 here?
A: 54%

B2: KV8.1 W388G (natural protein)
chain: MPSSGRALLDSPLDSGSLTSLDSSVFCSEGEGEPLALGDCFTVNVGGSRFVLSQQALSCFPHTRLGKLAVVVASYRRPGALAAVPSPLELCDDANPVDNEYFFDRSSQAFRYVLHYYRTGRLHVMEQLCALSFLQEIQYWGIDELSIDSCCRDRYFRRKELSETLDFKKDTEDQESQHESEQDFSQGPCPTVRQKLWNILEKPGSSTAARIFGVISIIFVVVSIINMALMSAELSWLDLQLLEILEYVCISWFTGEFVLRFLCVRDRCRFLRKVPNIIDLLAILPFYITLLVESLSGSQTTQELENVGRIVQVLRLLRALRMLKLGRHSTGLRSLGMTITQCYEEVGLLLLFLSVGISIFSTVEYFAEQSIPDTTFTSVPCAWWGATTSMTTVGYGDIRPDTTTGKIVAFMCILSGILVLALPIAIINDRFSACYFTLKLKEAAVRQREALKKLTKNIATDSYISVNLRDVYARSIMEMLRLKGRERASTRSSGGDDFWF
Q: Which current amplitude (patch clamp) in CHO cells co-transfected with KV8.1 W388G and wild-type KV7.2 (4:1), relative to both wild-type constructs [2] does the source give for B2 here?
A: 44.1%

— PMC11335225
